Here are results for 7 sequences from the DeepSol protein solubility set.

This data set in a line: soluble on expression in E. coli; label from the status in PepcDB or PDB records.
With “MSTGGFQKDQAINILLIGTDKRTGSGNDGYGDKGSAGHADTTLLLHVSKDRSNATALSIPRDLIVDVPDCPTTQEDGSTKVIPGSTGVRFNTSLGQSGRTPSCTMRTVTELTGVTPDNFMVADFNAVKTLSSAVGGVEVCLAKDIDDPDSHLNLPAGKHTVEGEEALAFVRTRHSVGFGGDLSRIELQQQFLSSLMRKLKSNDTLTSPTKMVKLAEAGTDALTVDAKLKSIGKLKDLGLELGKLDTKNLTFATVPVKDNPAEKTPVTVVLKDGPAQQVFDMVKNDVSFTEVKKQEKEKKDKEEAAVAARLEGKKSEPSEVRVRVLNGGASSGSAGRELTYLQNEAGVTKSENAGNAPADIAKTTLEYAPDQADQARALAEILGLTGAAMKPGESVTNSQGLPAMTLTLGKDFKGAGVKLDATSAKAPEDLQKSTADKVECAKLEHHHHHH”, the “soluble on expression in E. coli” value is “soluble”.

Turning to “MFCRDTLCDTTPAVTDFLNGLSAVASKSPCSGDGALSDGHNAQSRMPVMGHVFLTGLLCVSRLARKRQLLLKRLKQSALPPRASATPSMEDVAVQSPSAAADAGDTVFVRLVLSLLGHTLMKQATTAPCAASPGDNASPQAAPLPWWPATSAPSENAEDVVYDVQCVGNEDDHAGDNVGFSEEHAPGVGHMLFTASTSVHCRIVLRSHPVAIFSPAMMSELALDAEQRASVASRTWCHGGAPGTDSSEAVDAEADAGSCVARALEVFDACVRDHEEACLRQIAEIVGSLQRLLEKPATEVQSPGGLASTGSPSDSANASASRLGGCASPLHEWTIDVPIYGVVLYIEDTHATRLERVRRLTTPLLQAATGCGNAAGGPLGPVTQVLSKLHTWCAAWTAASSTSSTSPGASSCTPGIRTITLMHVTELRQLVDSHLKNSQTAAARLPGPANPATVGYDVSQALAAPACVVHCQLGVSRSPSVVMLFYMDVLAPQLRAAASAAEAPLNIFHGLLNALVQARHRVRPNVCFSAQLLSLWRRLMQLDTPASPTRVV”, the “soluble on expression in E. coli” value is reported as “not soluble”.

Consider “MQTSDSIVIIPTYNERENIENIIRAVFGLEKTFHILIIEDGSPDGTAAIVKTLQQEFPDRLFMIERKGKLGLGTAYITGFKWALEHSYEYIFEMDADFSHNPNDLPRLYEACAVQGGDVAIGSRYVSGVNVVNWPMGRVLMSYFASKYVRIVTGLPIHDTTAGFKCYRRQVLETIDLDHIRFKGYAFQIEMKFTAYKCGFKIIEVPVIFINRELGTSKMNSSIFGEAVFGVIKLKVNSWFHTFPQKTKMNLEHHHHHH”, for which the “soluble on expression in E. coli” value is “not soluble”.

For the sequence “MIRFCLQCLKTKKACICEWITPITTDIELIILQHPTEAKRPLGTAKILSLSLVNCRTFIGENFSEHSELNQLLADDSYHHQVLFLDNESKAIGTDKALLQKKQRVILLDGTWKKAYKMWQLSTNLHSLPKVHLNTDLSGNYRVRKAPKDNALSTAEAGYHILTQLDNDCVASNNVEKFDSILTAFDNMIEFHISQMPEGVFEKNYRSLEHHHHHH”, the “soluble on expression in E. coli” value is listed as “soluble”.

On to “MGSDKIHHHHHHMQQLFVQLLEERYFNRLPEALVLKFATESADFVRFWLVHCMRSMVSERELAIALFFSAEWELEELASLKSFWGSYVAMEEAQEVKATFCHFVPWLKTISPHHEDAICVFSALWFFEHRPTSVGKQLQSATLSHSQLPVSLLDDIKLFSLPHLRPITVYGHQGKGSVESGIRNNMHYPTPIPNDNLAMACVERVIAKFAGIKLAFAEPIVVLRYEPGQFYQWHYDAIHAYTAEIQAELERFGQRSRTAILYLNDDFEGGETEFKAPYIQVKPETAAILVFDNTDQTGKPIPSSLHRGCEVTAGKKWVCTQWFRDKPFWLRAGLLA”, for which the “soluble on expression in E. coli” value was “not soluble”.

Consider “MIQDIKRSSAPAAPAPVTVLKMWPNEMRSQSLEENLDAKLEQFKKEHSPVKERGNCSKTRKISENQPPPSFEVVMAKIRGIQESLKNMEDQMNEEERGKEMPDSTENSFDFSKIWQYFDQTRIEEIRALLKKRQFPDSP”, for which the “soluble on expression in E. coli” value was “not soluble”.

Consider “MSEPMSERERWQLELDKLQRGLQGDPFAFLGPQRDPGGEGGVLRAYLPGAQRVELLDEDGATLAELEQSDPGSGLFQRHLERLPPRYRLRVHWPDGVQESEDPYAFGPLLGELDLYLFAEGNHRQLASCLGAQLTRHEGVEGVRFAVWAPNAVRVSVVGDFNGWDGRRHPMRRRYPSGVWELFVPRLGEGELYKYELQGHDGLLPLKADPLALACETPPGTASKTCAALRHEWRDQDWLARRAERQGYAAP”, for which the “soluble on expression in E. coli” value is recorded as “not soluble”.
